The values that follow come from article PMC3478282, “Probing the Putative Active Site of YjdL: An Unusual Proton-Coupled Oligopeptide Transporter from E. coli” (PLoS ONE, 2012).

Test [1] concerns the target YdgR from E. coli, wild type (E. coli MG1655) (UniProt P77304).
The target of test [2] is YdgR-Tyr292Ala (E. coli MG1655) (UniProt P77304).
Test [3] deals with YdgR-Tyr292Phe (E. coli MG1655) (UniProt P77304).
Test [4] concerns the target YdgR-Tyr38Phe (E. coli MG1655) (UniProt P77304).
For test [5], the target named is YdgR-Tyr71Phe (E. coli MG1655) (UniProt P77304).
The target in test [6] is YjdL Tyr113Phe (E. coli) (UniProt P39276).
Test [7] deals with YjdL Tyr21Phe (E. coli) (UniProt P39276).
The target in test [8] is YjdL Tyr25Phe (E. coli) (UniProt P39276).
Test [9] addresses YjdL Tyr58Phe (E. coli) (UniProt P39276).
Test [10] deals with YjdL from E. coli, wild type (E. coli) (UniProt P39276).
Test [11] concerns the target YjdL-Ala281Phe (E. coli) (UniProt P39276).
Test [12] has as its target YjdL-Trp278Phe (E. coli) (UniProt P39276).
Test [13] addresses YjdL from E. coli, wild type (E. coli) (UniProt P39276). The source holds these as a separate data set.
A further test addresses YjdL-Asp392Ser (E. coli) (UniProt P39276).
Test [14] deals with YjdL Tyr113Phe (E. coli) (UniProt P39276). This is another data set of the same source.
Test [15] concerns the target YjdL Tyr21Phe (E. coli) (UniProt P39276). The source holds these as a separate data set.
Test [16] concerns the target YjdL Tyr25Phe (E. coli) (UniProt P39276). This is another data set of the same source.
For test [17], the target named is YjdL Tyr58Phe (E. coli) (UniProt P39276). The source holds these as a separate data set.
For test [18], the target named is YjdL from E. coli, wild type (E. coli) (UniProt P39276). The source holds these as a separate data set.
Test [19] concerns the target YjdL-Ala281Phe (E. coli) (UniProt P39276). The source holds these as a separate data set.
The target in test [20] is YjdL-Trp278Phe (E. coli) (UniProt P39276). The source holds these as a separate data set.

Like-named read-outs stand apart in the source and are kept apart here.

With Ala-Ala (peptide), the IC50 of inhibition of β-Ala-Lys(AMCA) uptake into E. coli cells (0.2 mM substrate, 5 min, pH 6.5) turned out to be 0.39 mM in test [1]; 0.59 mM in test [2]; 0.15 mM in test [3]; 0.37 mM in test [5]; 1.9 mM with YjdL Tyr113Phe (E. coli) [6]; 4.5 mM with YjdL Tyr21Phe (E. coli) [7]. The IC50 of inhibition of β-Ala-Lys(AMCA) uptake into E. coli cells (0.2 mM substrate, 5 min, pH 6.5) was > 50 mM with YjdL Tyr25Phe (E. coli) [8], 2.8 mM in test [10], > 50 mM with YjdL-Ala281Phe (E. coli) [11] and 9.9 mM with YjdL-Trp278Phe (E. coli) [12]. In addition, the IC50 of inhibition of β-Ala-Lys(AMCA) uptake into E. coli cells (0.5 mM substrate, 15 min, pH 6.5) turned out to be 1.04 mM in [1], 0.92 mM in [4], 28.1 mM with YjdL Tyr58Phe (E. coli) [9] and 2.2 mM in [10]. In test [13], the β-Ala-Lys(AMCA) uptake (0.5 mM) left with 50 mM competitor, E. coli cells, pH 6.5 was < 10%.

For Ala-Ala-Ala (peptide), the values for the β-Ala-Lys(AMCA) uptake (0.5 mM) left with 50 mM competitor, E. coli cells, pH 6.5 (in [13]; in the test with YjdL-Asp392Ser (E. coli)) were 55% and 34%, respectively.

With Ala-Lys (peptide), the IC50 of inhibition of β-Ala-Lys(AMCA) uptake into E. coli cells (0.2 mM substrate, 5 min, pH 6.5) was found to be 0.34 mM in the test with YjdL Tyr113Phe (E. coli) [14]; 0.45 mM in the test with YjdL Tyr21Phe (E. coli) [15]; 0.4 mM with YjdL Tyr25Phe (E. coli) [16]; 0.28 mM in test [18]; 0.26 mM with YjdL-Ala281Phe (E. coli) [19]; 0.38 mM in the test with YjdL-Trp278Phe (E. coli) [20]. Besides, the IC50 of inhibition of β-Ala-Lys(AMCA) uptake into E. coli cells (0.5 mM substrate, 15 min, pH 6.5) with YjdL Tyr58Phe (E. coli) [17] was > 50 mM; in [18], 0.89 mM. Besides, the β-Ala-Lys(AMCA) uptake (0.5 mM) left with 50 mM competitor, E. coli cells, pH 6.5 in test [13] is < 10%.
